Experimental data from the supplement of paper PMC9112550, “Optimization of the antimicrobial peptide Bac7 by deep mutational scanning” (BMC Biology, 2022).
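Further: peptides expressed intracellularly from a pBAD plasmid library in pooled LB shake-flask culture, induced with 0.3% L-arabinose, DNA abundance read by NGS, three biological replicates, DESeq2 with apeglm shrinkage.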

The sequences below were run on Escherichia coli TOP10 (assay: shrunken log2 fold change of peptide-encoding DNA abundance (4.5 h post-induction vs induction); higher = less antimicrobial activity (less host growth inhibition)). Details: time post-induction: 4.5 h; library: site-saturation at positions 5, 18, 19, 20.
With RRIRYRPPRLPRPRPRPCGSPRP the “shrunken log2 fold change” value was 0.00387. In the case of RRIRYRPPRLPRPRPRPCHRPRP, the “shrunken log2 fold change” value is reported as -0.169. In the case of RRIRYRPPRLPRPRPRPCIEPRP, the “shrunken log2 fold change” value is reported as -0.0017. For RRIRYRPPRLPRPRPRPCIHPRP, the “shrunken log2 fold change” value was -0.0152. In the case of RRIRYRPPRLPRPRPRPCIMPRP, the “shrunken log2 fold change” value is reported as -3.3. In the case of RRIRYRPPRLPRPRPRPCITPRP, the “shrunken log2 fold change” value is reported as -0.00269. RRIRYRPPRLPRPRPRPCLIPRP was tested, and the “shrunken log2 fold change” value was -0.00819. With RRIRYRPPRLPRPRPRPCLNPRP the “shrunken log2 fold change” value was -0.216. RRIRYRPPRLPRPRPRPCLVPRP was tested, and the “shrunken log2 fold change” value was -0.0874. In the case of RRIRYRPPRLPRPRPRPCNCPRP, the “shrunken log2 fold change” value is reported as -0.0018. With RRIRYRPPRLPRPRPRPCNSPRP the “shrunken log2 fold change” value was -0.168. RRIRYRPPRLPRPRPRPCNWPRP was tested, and the “shrunken log2 fold change” value was -0.0748. For RRIRYRPPRLPRPRPRPCPVPRP, the “shrunken log2 fold change” value was -0.143. RRIRYRPPRLPRPRPRPCPWPRP was tested, and the “shrunken log2 fold change” value was -0.227. In the case of RRIRYRPPRLPRPRPRPCQQPRP, the “shrunken log2 fold change” value is reported as -0.163. RRIRYRPPRLPRPRPRPCSFPRP was tested, and the “shrunken log2 fold change” value was -0.0048. With RRIRYRPPRLPRPRPRPCSTPRP the “shrunken log2 fold change” value was -0.212. For RRIRYRPPRLPRPRPRPCTCPRP, the “shrunken log2 fold change” value was 0.0744. RRIRYRPPRLPRPRPRPCTPPRP was tested, and the “shrunken log2 fold change” value was -1.14. RRIRYRPPRLPRPRPRPCYHPRP was tested, and the “shrunken log2 fold change” value was -0.289. For RRIRYRPPRLPRPRPRPDAKPRP, the “shrunken log2 fold change” value was -0.118. In the case of RRIRYRPPRLPRPRPRPDCPPRP, the “shrunken log2 fold change” value is reported as -0.179. For RRIRYRPPRLPRPRPRPDDPPRP, the “shrunken log2 fold change” value was -0.239. With RRIRYRPPRLPRPRPRPDGSPRP the “shrunken log2 fold change” value was -0.317. For RRIRYRPPRLPRPRPRPDHWPRP, the “shrunken log2 fold change” value was -0.166. RRIRYRPPRLPRPRPRPDIQPRP was tested, and the “shrunken log2 fold change” value was -0.349. For RRIRYRPPRLPRPRPRPDIVPRP, the “shrunken log2 fold change” value was -0.295. For RRIRYRPPRLPRPRPRPDLVPRP, the “shrunken log2 fold change” value was -0.0421. With RRIRYRPPRLPRPRPRPDMCPRP the “shrunken log2 fold change” value was -0.0185. For RRIRYRPPRLPRPRPRPDNCPRP, the “shrunken log2 fold change” value was -0.0299. For RRIRYRPPRLPRPRPRPDNMPRP, the “shrunken log2 fold change” value was -0.0223. With RRIRYRPPRLPRPRPRPDPDPRP the “shrunken log2 fold change” value was -0.162. In the case of RRIRYRPPRLPRPRPRPDPIPRP, the “shrunken log2 fold change” value is reported as -0.168. For RRIRYRPPRLPRPRPRPDREPRP, the “shrunken log2 fold change” value was -0.15. For RRIRYRPPRLPRPRPRPDRIPRP, the “shrunken log2 fold change” value was -0.00973. RRIRYRPPRLPRPRPRPDRLPRP was tested, and the “shrunken log2 fold change” value was -0.216. With RRIRYRPPRLPRPRPRPDSCPRP the “shrunken log2 fold change” value was 0.0675. RRIRYRPPRLPRPRPRPDSGPRP was tested, and the “shrunken log2 fold change” value was -0.0811. For RRIRYRPPRLPRPRPRPDSKPRP, the “shrunken log2 fold change” value was -0.352. In the case of RRIRYRPPRLPRPRPRPDSLPRP, the “shrunken log2 fold change” value is reported as -0.142. With RRIRYRPPRLPRPRPRPDTKPRP the “shrunken log2 fold change” value was -0.0212. In the case of RRIRYRPPRLPRPRPRPDVFPRP, the “shrunken log2 fold change” value is reported as -0.0152. In the case of RRIRYRPPRLPRPRPRPDVMPRP, the “shrunken log2 fold change” value is reported as 0.0199. RRIRYRPPRLPRPRPRPDVRPRP was tested, and the “shrunken log2 fold change” value was -0.0526. In the case of RRIRYRPPRLPRPRPRPDVYPRP, the “shrunken log2 fold change” value is reported as -0.0212. With RRIRYRPPRLPRPRPRPDWAPRP the “shrunken log2 fold change” value was 0.0528. With RRIRYRPPRLPRPRPRPDWNPRP the “shrunken log2 fold change” value was -0.428. With RRIRYRPPRLPRPRPRPDYHPRP the “shrunken log2 fold change” value was -0.0195. With RRIRYRPPRLPRPRPRPDYNPRP the “shrunken log2 fold change” value was -0.475. In the case of RRIRYRPPRLPRPRPRPEAFPRP, the “shrunken log2 fold change” value is reported as -0.00226. For RRIRYRPPRLPRPRPRPECGPRP, the “shrunken log2 fold change” value was -0.114. With RRIRYRPPRLPRPRPRPEDSPRP the “shrunken log2 fold change” value was -0.0108. RRIRYRPPRLPRPRPRPEEIPRP was tested, and the “shrunken log2 fold change” value was -0.00965. RRIRYRPPRLPRPRPRPEGDPRP was tested, and the “shrunken log2 fold change” value was -0.00396. For RRIRYRPPRLPRPRPRPEIDPRP, the “shrunken log2 fold change” value was -0.0347. For RRIRYRPPRLPRPRPRPEIEPRP, the “shrunken log2 fold change” value was -0.0892. For RRIRYRPPRLPRPRPRPEIHPRP, the “shrunken log2 fold change” value was -0.224. With RRIRYRPPRLPRPRPRPELTPRP the “shrunken log2 fold change” value was 0.075. RRIRYRPPRLPRPRPRPELYPRP was tested, and the “shrunken log2 fold change” value was -0.106. In the case of RRIRYRPPRLPRPRPRPEMEPRP, the “shrunken log2 fold change” value is reported as -0.0352. For RRIRYRPPRLPRPRPRPENTPRP, the “shrunken log2 fold change” value was -0.879. For RRIRYRPPRLPRPRPRPEQQPRP, the “shrunken log2 fold change” value was -0.0122. With RRIRYRPPRLPRPRPRPERDPRP the “shrunken log2 fold change” value was 0.0217. In the case of RRIRYRPPRLPRPRPRPETIPRP, the “shrunken log2 fold change” value is reported as -0.495. For RRIRYRPPRLPRPRPRPEVPPRP, the “shrunken log2 fold change” value was -0.0684. For RRIRYRPPRLPRPRPRPEWGPRP, the “shrunken log2 fold change” value was -0.169. With RRIRYRPPRLPRPRPRPEWSPRP the “shrunken log2 fold change” value was -0.0724. RRIRYRPPRLPRPRPRPEYTPRP was tested, and the “shrunken log2 fold change” value was -0.542. RRIRYRPPRLPRPRPRPFACPRP was tested, and the “shrunken log2 fold change” value was 0.0731. With RRIRYRPPRLPRPRPRPFCIPRP the “shrunken log2 fold change” value was -1.5. With RRIRYRPPRLPRPRPRPFDQPRP the “shrunken log2 fold change” value was -0.401. With RRIRYRPPRLPRPRPRPFEYPRP the “shrunken log2 fold change” value was -0.0492. In the case of RRIRYRPPRLPRPRPRPFFAPRP, the “shrunken log2 fold change” value is reported as -0.18. With RRIRYRPPRLPRPRPRPFFEPRP the “shrunken log2 fold change” value was -0.482. RRIRYRPPRLPRPRPRPFGYPRP was tested, and the “shrunken log2 fold change” value was -1.39. For RRIRYRPPRLPRPRPRPFHSPRP, the “shrunken log2 fold change” value was -0.0599. RRIRYRPPRLPRPRPRPFHTPRP was tested, and the “shrunken log2 fold change” value was -0.128. With RRIRYRPPRLPRPRPRPFIQPRP the “shrunken log2 fold change” value was -0.126. RRIRYRPPRLPRPRPRPFKFPRP was tested, and the “shrunken log2 fold change” value was 0.0599. In the case of RRIRYRPPRLPRPRPRPFKWPRP, the “shrunken log2 fold change” value is reported as -0.278. RRIRYRPPRLPRPRPRPFLQPRP was tested, and the “shrunken log2 fold change” value was -0.218. RRIRYRPPRLPRPRPRPFMAPRP was tested, and the “shrunken log2 fold change” value was -0.773. For RRIRYRPPRLPRPRPRPFMNPRP, the “shrunken log2 fold change” value was -0.0199. In the case of RRIRYRPPRLPRPRPRPFMQPRP, the “shrunken log2 fold change” value is reported as -0.403. RRIRYRPPRLPRPRPRPFMTPRP was tested, and the “shrunken log2 fold change” value was -2.5. In the case of RRIRYRPPRLPRPRPRPFNHPRP, the “shrunken log2 fold change” value is reported as -0.732. For RRIRYRPPRLPRPRPRPFPFPRP, the “shrunken log2 fold change” value was -0.271. With RRIRYRPPRLPRPRPRPFQPPRP the “shrunken log2 fold change” value was -0.375. For RRIRYRPPRLPRPRPRPFRVPRP, the “shrunken log2 fold change” value was -0.0371. With RRIRYRPPRLPRPRPRPFTPPRP the “shrunken log2 fold change” value was -0.889. With RRIRYRPPRLPRPRPRPFVEPRP the “shrunken log2 fold change” value was -1.17. RRIRYRPPRLPRPRPRPFYPPRP was tested, and the “shrunken log2 fold change” value was -0.747. For RRIRYRPPRLPRPRPRPGCIPRP, the “shrunken log2 fold change” value was -0.819. In the case of RRIRYRPPRLPRPRPRPGCYPRP, the “shrunken log2 fold change” value is reported as -0.8. For RRIRYRPPRLPRPRPRPGFQPRP, the “shrunken log2 fold change” value was -1.11. For RRIRYRPPRLPRPRPRPGFVPRP, the “shrunken log2 fold change” value was 0.0168. With RRIRYRPPRLPRPRPRPGGFPRP the “shrunken log2 fold change” value was -0.169. For RRIRYRPPRLPRPRPRPGGGPRP, the “shrunken log2 fold change” value was 0.64. RRIRYRPPRLPRPRPRPGGSPRP was tested, and the “shrunken log2 fold change” value was -0.017. With RRIRYRPPRLPRPRPRPGHMPRP the “shrunken log2 fold change” value was -0.195. In the case of RRIRYRPPRLPRPRPRPGHWPRP, the “shrunken log2 fold change” value is reported as -0.135. With RRIRYRPPRLPRPRPRPGIDPRP the “shrunken log2 fold change” value was -0.16. In the case of RRIRYRPPRLPRPRPRPGIWPRP, the “shrunken log2 fold change” value is reported as 0.138. In the case of RRIRYRPPRLPRPRPRPGKHPRP, the “shrunken log2 fold change” value is reported as 0.0354. In the case of RRIRYRPPRLPRPRPRPGKSPRP, the “shrunken log2 fold change” value is reported as 0.0131. RRIRYRPPRLPRPRPRPGLPPRP was tested, and the “shrunken log2 fold change” value was 0.107. RRIRYRPPRLPRPRPRPGMEPRP was tested, and the “shrunken log2 fold change” value was -0.0379. RRIRYRPPRLPRPRPRPGNQPRP was tested, and the “shrunken log2 fold change” value was -0.252. RRIRYRPPRLPRPRPRPGNWPRP was tested, and the “shrunken log2 fold change” value was -0.163.
